This is an account of results in patent US7977317B2, “Compositions and methods for modulating blood-brain barrier transport” (Raptor Pharmaceutical Inc., priority 2001, dated 2011).

In one series the test system is BBCEC monolayers. The experiment in a line: Sucrose permeability of BBCEC monolayers (in vitro BBB model) in the presence of p97. In kind it is cell-based, bovine. The method, then:
FIG. 2. Effect of p97 (1 μm) on sucrose permeability with BBCECs that were preincubated for 2 hrs at 37° C. The effect of p97 at 1 μM on sucrose permeability of the in vitro BBB model was tested. The permeability coefficient (Pe) for sucrose was calculated as previously described (Dehouck, et al., J. Neurochem., 58:1790-179 (1992)) using filters coated or non-coated with BBCE cells. Briefly, coated or non-coated filters with BBCE cells were transferred to 6-well plates containing 2 ml of Ringer/Hepes per well (basolateral compartment) for 2 hrs at 37° C. In each apical (i.e., luminal) chamber, the culture medium was replaced by 1 ml Ringer/Hepes containing labeled [^14C]-sucrose. […] At the end of the experiments, amounts of the radiotracers in the basolateral (i.e., abluminal) compartment were measured in a liquid scintillation counter. The permeability coefficient (Pe) was calculated as described in FIG. 1.
FIG. 14 illustrates the stability of p97 and integrity of the BBCEC monolayers following p97 transcytosis. […] The gels were dried and scanned to quantify the amount of intact p97 that crossed the BBCEC monolayers at 37° C. and 4° C. […]
D. Sucrose permeability. The permeability coefficient for sucrose was measured to verify the endothelial permeability and the integrity and tightness of the BBCEC monolayers, as previously described, using uncoated filters or coated with endothelial cells. […]

A short description of series [1]: Brain uptake one hour after i.v. injection. The format is in vivo. The settings on record: mice, one hour after i.v. injection of [125I]-protein (FIG. 11a). The protocol:
FIG. 11 examines the accumulation and transcytosis of p97. FIG. 11a, of [^125I]-p97, [^125I]-BSA and [^125I]-holo-transferrin one hour after i.v. injection. The radioactivity in brain was compared between the three compounds. (n=3); FIG. 11b, Accumulation of p97 and transferrin into the mouse brain parenchyma. In situ brain perfusion was performed with human [^125I]-p97 or [^125I]-holo-transferrin at a final concentration of 10 nM via a catheter inserted in the right common carotid artery. The volume of distribution (VD) of [^125I]-proteins were obtained in the whole brain homogenate (white bars), in brain capillaries (solid bars) and in brain parenchyma (hatched bars) after isolation of the right hemisphere and capillary depletion. Results were obtained for p97 (n=10) and for holo-transferrin (n=6); FIG. 11c, Transcytosis of p97 across BBCEC monolayers. Transcytosis experiments were performed 37° C. (open circles) and 4° C. (closed circles) with BBCEC monolayers. […] Apical-to-basal and basal-to-apical transport of [^125I]-p97 (25 nM) was measured for 2 hrs at 37° C. At the end of the experiment, [^125I]-p97 was assessed in the lower or upper chambers of each well by TCA precipitation (n=4).
A. Brain uptake and in situ brain perfusion. […] The serum and brain samples were collected and the levels of radioactivity were measured. […]

B1: p97: recombinant human melanotransferrin (p97), provided by Synapse Technologies (protein, UniProt P08582 20-709, looked up)
Melanotransferrin: GMEVRWCATSDPEQHKCGNMSEAFREAGIQPSLLCVRGTSADHCVQLIAAQEADAITLDGGAIYEAGKEHGLKPVVGEVYDQEVGTSYYAVAVVRRSSHVTIDTLKGVKSCHTGINRTVGWNVPVGYLVESGRLSVMGCDVLKAVSDYFGGSCVPGAGETSYSESLCRLCRGDSSGEGVCDKSPLERYYDYSGAFRCLAEGAGDVAFVKHSTVLENTDGKTLPSWGQALLSQDFELLCRDGSRADVTEWRQCHLARVPAHAVVVRADTDGGLIFRLLNEGQRLFSHEGSSFQMFSSEAYGQKDLLFKDSTSELVPIATQTYEAWLGHEYLHAMKGLLCDPNRLPPYLRWCVLSTPEIQKCGDMAVAFRRQRLKPEIQCVSAKSPQHCMERIQAEQVDAVTLSGEDIYTAGKTYGLVPAAGEHYAPEDSSNSYYVVAVVRRDSSHAFTLDELRGKRSCHAGFGSPAGWDVPVGALIQRGFIRPKDCDVLTAVSEFFNASCVPVNNPKNYPSSLCALCVGDEQGRNKCVGNSQERYYGYRGAFRCLVENAGDVAFVRHTTVFDNTNGHNSEPWAAELRSEDYELLCPNGARAEVSQFAACNLAQIPPHAVMVRPDTNIFTVYGLLDKAQDLFGDDHNKNGFKMFDSSNYHGQDLLFKDATVRAVPVGEKTTYRGWLGLDYVAALEGMSSQQC
Regarding B1, the “Change in sucrose permeability by p97” value in the series with BBCEC monolayers (1 micromolar p97 (FIG. 2)) is “no significant change”. Also, the “Clearance of sucrose in the presence of p97” value in the series on BBCEC monolayers (high concentration of p97 (FIG. 14c)) was “No significant increase”. The Brain/serum ratio in series [1] turned out to be 0.025.
